# Source: ChEMBL document CHEMBL1140886, “Development of an optimized activatable MMP-14 targeted SPECT imaging probe” (Bioorg Med Chem, 2009)
# Substrate: CC[C@H](C)[C@H](NC(=O)[C@H](CCCNC(=N)N)NC(=O)CNC(=O)[C@@H](N)CO)C(=O)NCC(=O)N[C@@H](Cc1ccccc1)C(=O)N[C@@H](CC(C)C)C(=O)N[C@@H](CCCNC(=N)N)C(=O)N[C@H](C(=O)N[C@@H](C)C(=O)O)[C@@H](C)O
# Experiment: Ratio of kcat/km for MMP9 assessed as drug cleavage
protein,measurement,value
"Matrix metalloproteinase-9 (Homo sapiens), P14780 (protein) MSLWQPLVLVLLVLGCCFAAPRQRQSTLVLFPGDLRTNLTDRQLAEEYLYRYGYTRVAEMRGESKSLGPALLLLQKQLSLPETGELDSATLKAMRTPRCGVPDLGRFQTFEGDLKWHHHNITYWIQNYSEDLPRAVIDDAFARAFALWSAVTPLTFTRVYSRDADIVIQFGVAEHGDGYPFDGKDGLLAHAFPPGPGIQGDAHFDDDELWSLGKGVVVPTRFGNADGAACHFPFIFEGRSYSACTTDGRSDGLPWCSTTANYDTDDRFGFCPSERLYTQDGNADGKPCQFPFIFQGQSYSACTTDGRSDGYRWCATTANYDRDKLFGFCPTRADSTVMGGNSAGELCVFPFTFLGKEYSTCTSEGRGDGRLWCATTSNFDSDKKWGFCPDQGYSLFLVAAHEFGHALGLDHSSVPEALMYPMYRFTEGPPLHKDDVNGIRHLYGPRPEPEPRPPTTTTPQPTAPPTVCPTGPPTVHPSERPTAGPTGPPSAGPTGPPTAGPSTATTVPLSPVDDACNVNIFDAIAEIGNQLYLFKDGKYWRFSEGRGSRPQGPFLIADKWPALPRKLDSVFEERLSKKLFFFSGRQVWVYTGASVLGPRRLDKLGLGADVAQVTGALRSGRGKMLLFSGRRLWRFDVKAQMVDPRSASEVDRMFPGVPLDTHDVFQYREKAYFCQDRFYWRVSSRSELNQVDQVGYVTYDILQCPED",kcat/Km,20000 M⁻¹ s⁻¹
